Results: paper doi:10.1101/2025.01.02.631089, “The atypical filament assembly underpins the inflammasome-independent functions of IFI16” (bioRxiv, 2025)

Target: the molecule itself
Experiment: cryo-EM structure; auto-assembled filaments of recombinant IFI16 PYD, 73 uM, in 40 mM HEPES pH 7.4, 160 mM NaCl, 1 mM EDTA, 1 mM DTT; helical reconstruction

B1: IFI16^PYD (pyrin domain of human Interferon Inducible Protein 16, residues 1-94) (domain or fragment, UniProt Q16666 1-94, looked up)
chain: MGKKYKNIVLLKGLEVINDYHFRMVKSLLSNDLKLNLKMREEYDKIQIADLMEEKFRGDAGLGKLIKIFEDIPTLEDLAETLKKEKLKVKGPAL
notes: Interferon inducible protein 16 (IFI16), human, pyrin domain, residues 1-94; Assembles into a helical filament (three-start helix, 134.6 degrees rotation, 5.6 Å rise, no rotational symmetry); The number of copies in a filament is not defined; Cloned in pET21b; also called IFI16^PYD filament; source: E. coli BL21(DE3), purified (Ni-NTA, Superdex 75 SEC)
B1: binds.
